Assay results: the DeepSol protein solubility set

test: soluble on expression in E. coli; label from the status in PepcDB or PDB records

Soluble on expression in E. coli, soluble:
PNLTEISKKITESNAVVLAVKEVETLLASIDELATKAIGKKIGNNGLEANQSKNTSLLSGAYAISDLIAEKLNVLKNEELKEKIDTAKQCSTEFTNKLKSEHAVLGLDNLTDDNAQRAILKKHANKDKGAAELEKLFKAVENLSKAAQDTLKNAVKELTSPIVA, QEPFHVVTPLLESWALSQVAGMPVFLKCENVQPSGSFKIRGIGHFCQEMAKKGCRHLVCSSGGNAGIAAAYAARKLGIPATIVLPESTSLQVVQRLQGEGAEVQLTGKVWDEANLRAQELAKRDGWENVPPFDHPLIWKGHASLVQELKAVLRTPPGALVLAVGGGGLLAGVVAGLLEVGWQHVPIIAMETHGAHCFNAAITAGKLVTLPDITSVAKSLGAKTVAARALECMQVCKIHSEVVEDTEAVSAVQQLLDDERMLVEPACGAALAAIYSGLLRRLQAEGCLPPSLTSVVVIVCGGNNINSRELQALKTHLGQ, DAARRGGAAGGGGPRSPRRSGPLGPHACPPALPEPKVTSTMSSQVVGIEPLYIKAEPASPDSPKGSSETETEPPVTLASGPAPARCLPGHKEEEDGEGAGSGEQGSGKLVLSSLPKRLCLVCGDVASGYHYGVASCEACKAFFKRTIQGSIEYSCPASNECEITKRRRKACQACRFTKCLRVGMLKEGVRLDRVRGGRQKYKRRPEVDPLPFPGPFPAGPLAVAGGPRKTAPVNALVSHLLVVEPEKLYAMPDPASPDGHLPAVATLCDLFDREIVVTISWAKSIPGFSSLSLSDQMSVLQSVWMEVLVLGVAQRSLPLQDELAFAEDLVLDEEGARAAGLGDLGAALLQLVRRLQALRLEREEYVLLKALALANSDSVHIEDAEAVEQLREALHEALLEYEAGRAGPGGGAERRRAGRLPCTLPLLRQTAGKVLAHFYGVKLEGKVPMHKLFLEMLEAMMD, MSNSITVRARGVNGQESVSLQVGGTTVQTWTLTTAMQDYTASTSLTGEIRVAFTNDATGRDVQVDYIVVNGQTRQAENQSVNTGVWANNQCGGSGNSEWLHCNGYISFGNVS, GMNDRKILVAYFSCSGVTKAVAEKLAAITGADLYEIKPEVPYTEADLDWNDKKSRSSVEMRDALSRPAISGTLFHPEKYEVLFVGFPVWWYIAPTIINTFLESYDFAGKIVVPFATSGGSGIGNCEKNLHKAYPDIVWKDGKLLNGQITRDLVTEWFEKIRL, MSWQAYVDTSLLGTGKIDRAAIVSRAGDSVWAASAGFNLSPQEIQGLAAGFQDPPSMFGTGIILAGQKYITIRAEGRSIYGKLQKEGIICVATKLCILVSHYPETTLPGEAAKITEALADYLVGVGY, GSHMATPWSGYLDDVSAKFDTGVDNLQTQVTEALDKLAAKPSDPALLAAYQSKLSEYNLYRNAQSNTAKAFKDIDAAIIQNFR, MKKRFIYHDEKSNKFWWIDYEGDSLAVNYGKVGSIGKFQTKEFDNEEQCLKEASKLIAAKMKKGYQEDPKFNFMDRYYFDDEEIGLHVKTSHPNFQCHFTDPLYMCCWDEESPFGSDEGADALNVLENSLRKEPDLDCADFPQMLIETMWGMKYIAMDSILEEDVRAQLLVDEMSTIQSNMITYATAFGQIKVMGKISHKLKKMGLNALARHQLTAKILQWGDGQDSPILQKMIDDLTAFPHENLEHHHHHH, GSHMAQQNILSVHILNQQTGKPAADVTVTLEKKADNGWLQLNTAKTDKDGRIKALWPEQTATTGDYRVVFKTGDYFKKQNLESFFPEIPVEFHINKVNEHYHVPLLLSQYGYSTYRGS, MSLLRQRFVFDTTALTDSQAWESEGCTTLCEGMSAILHRVAQARLHLGISCYVPYPSVYNEIRDFVRNNNCDIAILGKIDTWLVKKTPDRYRVKIPSKIFYEYVDYMRSRINKGMNVSEEAIWEAVSRCLSISATGEGREQMREEIEREVVGSIIRKFREKYRAALRYGILDSAPDIDVLLLAKDLDAAVVSQDLGIQRWAEQLGLRFMEARAFPQMVREYMSFVPLHTEELEDRMVEGHHHHHH, MVLAALVLVLEGEGLPEPLGLRGFFYGLLREVAPEVHDQGENPFALGFGGREGAAWARVSLLVEGLYARLAPRLYALEGEEVRLGPPFRVRAVLQEGHPWAGVSTYPRLFQGPPSRDLALRFASPTFFRRKGVHYPVPEPRLVLESLLRRLEAFGPLKAPEGVREALLERTTVRSLEGRTLPARTEVDTAGFVGRVVYHLPRATEEEALWLSALGRFAFYSGVGAKTSLGYGRARAESA, MKTLIEIKQTPDGIIKADKVFNKVKDKISLPNRILYLGCGSSHFLSKLLAMVTNMHGGLGIALPCSEFLYSKETYPIGEVELAVGISRSGETTEILLALEKINVKKLGITTRESSLTRMCDYSLVVPAIEESVVMTHSFTSFYFAYLQLLRYSYGLPPLNAGEISKATEKSLEYERYIREIVESFDFQNIIFLGSGLLYPVALEASLKMKEMSIFWSEAYPTFEVRHGFKAIADEKTLVVLMVEEPFEWHEKLVKEFKNQGAKVLVISNSPQDLGQDYSIELPRLSKDANPIPYLPIVQLLSYYKAVSRGLNPDNPRFLDKVVRW

Soluble on expression in E. coli, not soluble:
MSLGQVEVIDRRQSVFGDDIQLQKRSSSYEIISNGVFLMSTENGRSEREMVTLGAQHMKNAVHSVLIGGLGVGITADEAVHLNDHVQVHVVEIEPSVVEWQYRYLYPFSNQALEHERTAIIISDIQQWLRTNERTYDLICLDTDNGPDWMVHKQNASLYGKIGLELVRERVRVGGAVSFWSASASESFLHELETLFDRVYEHAVSISHTLPPDYVYVACREGHHHHHH, MAHHHHHHMARRLQQAWRAFAARRERRYRAAAVAQCARKRLEREEVWQLVWQDQFTELDMLCMLERQYIEEQQHVKRVRLYKYLCDPNGATNDDCGTQTPGAFNADADLLKWATLYDE, MNTNLAELPVRIFKILSEELQKDNIWIKIVEFDEDPIYYMKSTEIESFLKREKCCEQVLRKWGNRGQTVGSLLARLQFLSRTYEDEFDSIQFHLRRKFKPLRWIPDPEQQVTKEIDEGNIKLECKAQGFPCPEIKWFTKGSKEPVHIGRVYTILRCKCSNEHQYKCVAKNEIREGSPYSEIYRKAGKQFSSVIESEYVDVTSCIRDDELCESCKKYEMGRLSQILAEDQEKPENKVSPVRPNLDITLRAADKVALIMSNCSYVHLPELRTPHCDAQTLADALQKMNYKTVTLADLTLDEMRYFIRVYQKLIGNGVYAVFYFVGHGFEVNGQCYLLGVDAPADAHQPQHSMSMDWLLSIFRHKTPDLNLLLLDVCRKFVPYDAISAFVEYSEQFKKFHRAHRNMVYGYSTSGGVGAYEVKGEVNGVFMKYLKNHVQLEISVIDMLNKVLLDIGDDQKVCDLQVPEIRSTLTHPRSLADPLIFDGHTASFDNHTIHWRLMHELPTPATIRFETQQLVATIWFQFCGNFTNKVYVFASISDFRPCQEDTDMGENEELSENALNHRAFVEFPEELHCSDVREYNDDEEGVSMLWILSGLQKIKKEAGLTCEVHLRHVDDPEKTIEMKNVDIGHILITRIKCLQ, MGSDKIHHHHHHMELRVGGAKPSDNSPAASKGFSDPLDSHGVPGRSKQYLIHSAFTGTIGGVAMAYVDWAIKGPKIASCSCDYGCPCEFNGKPTEGLCEGLECMLIEEGWFGDLRLDGLKVAAVYRWPGPVHEGGGVVRGFFDANADQAQIDALFTILGGKEQEPTTVFNIYGSTIAQELEPIFAPIEFHSDIEKRTGGFRIDGHLELELEPIRNPVTGAPHRARIVLPEGFEFRQAEIASGTFNANGEIAMGRQKRYGALWRAAYGPYGIIEE, MMQISDTYNQKHSLFNAMNRFIGAVNNMDQTVMVPSLLRDVPLDMEVKDEVHNTIGATNYFSRTDMHGYYILLKSIRNDIEWGVVQGEDRKKDKLSNMEISRLEDGDGEEDLEKQFHYHLSGLHTVLNKLTRKAHILTNRYKEEIGFGSWGH, MGSDKIHHHHHHMIMKFFDREREINEILGILDETPDNIYFIYGPINSGKTTLMMEIINRLKDDKKYRIFYYNLRGVRISSYSDFFDIMFEIREDNKFKQMVKDADVLVEGIKFIEKTAKLFNESIILPSDLAKVILSKQKGFDVFRYLERVFREMNKKGLKPVIIIDELQRLKGLKSNGELIDDLFNFFVRLTKELHITHCFCLSSDSLFIEYVYDRAELRGRADYILVDDFDKETALKFMDFLSEDILGRKLSEDEKELIYSYVGGKPKDVYDVIIKLKLGKELKDILEFMLKEEIQKLKYFLEDVKEDDEELYNKIVDALKIFKENYEIEDIKIPKNIREFLVKKNILFLNPIEGTLKPQSFLVWNAIKKLLNGH, MGSDKIHHHHHHIWCTPTRLARPDRRGKAIRTIGMADGTIPMNAKPTEEISVREVFGIDTPMLVKGFAERSDRVPEIDQTYKFDPDTTLAILAGFSHNRRVMVQGYHGTGKSTHIEQVAARLNWPCVRVNLDSHISRIDLIGKDAIKLRDGKQVTEFHEGILPWALRNPVAIVFDEYDAGRADVMFVIQRVLEHDGKLTLLDQNEIITPNPCFRLFATANTVGLGDTTGLYHGTQQINQAQMDRWSLVATLNYLSHDAETMIVLSKAPHYNTEKGRKQVSQMVTVADLTRTAFMNGDLSTVMSPRTVINWAQNAEIFRDVGYAFRLTFLNKCDELERQTVAEFYQRCFDEELPESAASTSLG, MGSDKIHHHHHHMQLVFDFPVNPKYSLDNFVICSGNETAYRFVRRLTDDEGAENLLYLHGPSGSGKTHLLMAIGAHFSARAGLSSVPCISFKDVDEVYGGEYPAEAVSKLAERFRNAPALLVDDLHLIPDQQAVRVELWQLFNDFYQAGRPIAITGLYPPKELPTIDDHLISRLLWGLVARVDISDDDSRRLIMKKLADDRQIVLPADVIDYLLLHVRRDVPSLIEALDAISRYALAAKRKVSVRLAREALAFHS, MGSDKIHHHHHHMGVRQKKIAAHDLEIGMFVSDLDRPWHQTPFPIQGFYLRSENDLKAVVSHCKWVMIDVAETREEITLGSDKVRPFARRSSARSGGREELQLAPLSIREPVVYKNDVPLRKELKASRKLLNDAELALSRMFETIRDDQMPDLRPAAEVTRRMVESVIRQPNALLWLSRTRQYDDFVYRHALNTAVWALVCGRQLGLNEGLLNHLGVGCLLSQVGKTALPKEMLAREHQLSTEEYATYRTYVERGCQMLEGAGLSRAVMSVVQGHRERHNGSGFPQGIRGDRIPLLAKVAGIAEFFESLIAPRDDQDPMTPAKAVSLLYDMRNIEFQEDLVEAFIQGVGVYPTGTLVELSDGQRGIVVSHSPGRRLWPSVMVMQDAEHRPLKSARIVDLARHIESRAASELLTVRECLPHGTDGLDPAGFDVTGAESRWSLGKLINR, MMNASTKFSDNYDVKEELGKGAFSVVRRCVHKTTGLEFAAKIINTKKLSARDFQKLEREARICRKLQHPNIVRLHDSIQEESFHYLVFDLVTGGELFEDIVAREFYSEADASHCIQQILESIAYCHSNGIVHRDLKPENLLLASKAKGAAVKLADFGLAIEVNDSEAWHGFAGTPGYLSPEVLKKDPYSKPVDIWACGVILYILLVGYPPFWDEDQHRLYAQIKAGAYDYPSPEWDTVTPEAKSLIDSMLTVNPKKRITADQALKVPWICNRERVASAIHRQDTVDCLKKFNARRKLKAAISAVKMVTRMSGVLRTSDSTGSVASNGSTTHDASQVAGTSSQPTSPAAEGAILTTMIATRNLSNLGRNLLNKKEQGPPSTIKESSESSQTIDDNDSEKGGGQLKHENTVVRADGATGIVSSSNSSTASKSSSTNLSAQKQDIVRVTQTLLDAISCKDFETYTRLCDTSMTCFEPEALGNLIEGIEFHRFYFDGNRKNQVHTTMLNPNVHIIGEDAACVAYVKLTQFLDRNGEAHTRQSQESRVWSKKQGRWVCVHVHRSTQPSTNTTVSEF, ELLPDVRLLYGETPFARTPVMYEPGIIILFSGHKIGYINERVFRYDANEYLLLTVPLPFECETYATSEVPLAGLRLNVDILQLQELLMDIGEDEHFQPSMAASGINSATLSEEILCAAERLLDVMERPLDARILGKQIIREILYYVLTGP
